Numbered stars: 1 amine (or outer) side, 2 acyl side, 3 side chain; on linkers, the order of the positions; unused ones are H or OH. Square brackets hold non-standard residues; d marks the D form. Peptide text beside a SMILES is read from it. * marks the point of attachment. Exatecan = CC[C@@]1(O)C(=O)OCc2c1cc1n(c2=O)Cc2c-1nc1cc(F)c(C)c3c1c2[C@@H](N*)CC3; Dolaproine = CO[C@@H]([C@@H]1CCCN1)[C@@H](C)C(=O)O; Hexanoyl(6-maleimido) = O=C1C=CC(=O)N1CCCCCC(=O)*; Dil = CC[C@H](C)[C@H](NC)[C@@H](CC(=O)O)OC; PABC = O=C(OCc1ccc(N[*:1])cc1)[*:2]; X1 = C[N+](C)(CCCS(=O)(=O)[O-])CCN*; NHCH2OCH2CO = O=C(COCN[*:1])[*:2]; X2 = C[C@@H](N*)[C@@H](O)c1ccccc1; NMeV = CN[C@H](C(=O)O)C(C)C
What was measured:
[1] = Size exclusion chromatography (SEC) analysis of the antibody-drug conjugates; type: physicochemical; conditions: SEC purity of the antibody-drug conjugate
Method: Size exclusion chromatography (SEC) analysis column is Tskgel G3000SWXL (TOSOH, 0008541); mobile phase is 0.1 M PB, pH7.0, 0.1M NaCl; isocratic elution, flow rate: 1 mL/min; column temperature: 25° C. Detection wavelength is 280 nm and 366 nm, respectively. Hydrophobic interaction chromatography (HIC) analysis column is Butyl-NPR 4.6×100 mm (TOSOH, 0042168); mobile phase A is 50 mM PB, pH7.0, 1.5 M (NH4)2SO4; mobile phase B is 50 mM PB, pH7.0, 20% acetonitrile. Separation gradient: changing from 0% B to 100% B in 2-20 min, column temperature: 30° C., flow rate: 0.6 mL/min. Detection wavelength is 280 nm and 366 nm, respectively.

[2] = Hydrophobic interaction chromatography (HIC) analysis of the antibody-drug conjugates; type: physicochemical; conditions: main peak of the antibody-drug conjugate, Butyl-NPR column
Method: Size exclusion chromatography (SEC) analysis column is Tskgel G3000SWXL (TOSOH, 0008541); mobile phase is 0.1 M PB, pH7.0, 0.1M NaCl; isocratic elution, flow rate: 1 mL/min; column temperature: 25° C. Detection wavelength is 280 nm and 366 nm, respectively. Hydrophobic interaction chromatography (HIC) analysis column is Butyl-NPR 4.6×100 mm (TOSOH, 0042168); mobile phase A is 50 mM PB, pH7.0, 1.5 M (NH4)2SO4; mobile phase B is 50 mM PB, pH7.0, 20% acetonitrile. Separation gradient: changing from 0% B to 100% B in 2-20 min, column temperature: 30° C., flow rate: 0.6 mL/min. Detection wavelength is 280 nm and 366 nm, respectively. The results are shown in Table 1 and FIG. 1-FIG. 6 (FIG. 1 comprises FIG. 1A and FIG. 1B; FIG. 2 comprises FIG. 2A and FIG. 2B; FIG. 3 comprises FIG. 3A, FIG. 3B, FIG. 3C, FIG. 3D, FIG. 3E, FIG. 3F, FIG. 3G and FIG. 3H; FIG. 4 comprises FIG. 4A and FIG. 4B; FIG. 5 comprises FIG. 5A and FIG. 5B; and FIG. 6 comprises FIG. 6A, FIG. 6B, FIG. 6C, […], FIG. 6E, FIG. 6F, FIG. 6G and […]).

MC38-hClaudin18.2 cells = test: In vitro tumor cell killing activity, MC38-hClaudin18.2 cell line (AlamarBlue); type: cell-based, mouse; conditions: MC38-hClaudin18.2 cells, 48-72 hours, AlamarBlue; read-out: IC50 values
Method: 9D1 antibody-drug conjugates prepared in the previous Experimental Examples and Comparative Examples were used for performing in vitro killing test on MC38 cell lines stably expressing human Claudin18.2. MC38-hClaudin18.2 cells were inoculated into a 96-well cell culture plate at 3000 cells/well, adding gradient diluted 9D1 ADCs next day to culture for 48-72 hours. The fluorescence values of each experimental well were detected by AlamarBlue reagent (ThermoFisher, item number DAL1100), and the cell viability was calculated.
When the cell confluence was greater than 80%, the cells were passaged at a ratio of 1:10 to 1:20 every 3 days.
MC38-hClaudin18.2 cells were digested by a digestive solution of recombinant enzyme (TrypLE™ Express Enzyme). […] The cell density was adjusted to 3×10^4 cells/mL, inoculating into 96-well cell culture plate at 100 μL/well. The cells were cultured overnight at 37° C. in 5% C02 incubator. The next day, the test drug was diluted 10 times in a series with a total of 7-8 concentration points, simultaneously setting a blank control with a sample concentration of 0. The diluted sample was added to 96-well cell culture plate containing cells at 100 μL/well, then incubating at 37° C. in 5% CO2 incubator for 48-72 hours. 20 μL of AlamarBlue detection reagent was added to each well, incubating at 37° C. for 4-6 hours, the fluorescence signal intensity was detected on a multifunctional enzyme-linked immunosorbent assay (ELISA) instrument with an excitation wavelength of 560 nm and an emission wavelength of 590 nm.
The cell viability of the blank control was set to 100%, and the cell viability (%) of the experimental well was calculated by the following formula: […]
The detected average cell viability was takedn as the y-axis, a sigmoid dose response (Variable Slope) method (GraphPad Prism software, GraphPad Software, San Diego, California) was used for nonlinear regression to obtain the inhibitory effect curves of cell proliferation, and the corresponding IC50 values (half maximum inhibition concentration) were calculated. […]

Cathepsin B enzyme = target: T1, Cathepsin B enzyme (Homo sapiens, UniProt P07858); test: In vitro enzymatic release of free toxin molecules by Cathepsin B; type: biochemical
T1 construct: purchased Sino Biological 10483-H08H
Method: Preparation of activated buffer solution (10 mM L-cysteine (ACRO, cat #: 173600250), 15 mM EDTA, 0.1M His HCl, pH 5.5): […] of solid cysteine was weighed, adding 3 mL of 0.1M His HCl (pH 5.5) solution for dissolution, and then adding 90 μL of 0.5M EDTA solution to mix well.
[…] At each detection time point, 50 μL of enzyme digestion solution was taken, adding 2.5 μL of 10% TFA solution to terminate the reaction for enzyme digestion kinetics detection.
Negative control preparation: 30 μL of activated buffer was taken to stay in 37° C. water bath for 15 minutes, then adding 300 μL of 0.1M His HCl (pH 5.5) solution and 36 μL of 9D1-LD-38 (375 μg) to stay in 37° C. water bath overnight.

[3] = Time 0 h, linker-toxin to Cathepsin B about 1200:1, 37° C.

Compound | SEC % [1] [%] | HIC retention time [2] [min] | also measured
CC[C@@]1(O)C(=O)OCc2c1cc1n(c2=O)Cc2c-1nc1cc(F)c(C)c3c1c2[C@@H](NC(=O)OCc1ccc(NC(=O)[C@H](C)NC(=O)[C@@H](NC(=O)CCCCCN2C(=O)C=CC2=O)C(C)C)cc1CN(C)C(=O)CN(C)C(=O)CN(C)C(=O)CN(C)C(=O)CN(C)C(=O)CN(C)C(=O)CN(C)C(=O)CN(C)C(=O)CN(C)C(=O)CN(C)C(=O)CN(C)C(C)=O)CC3 [LD-74, reference compound] | 99.53 | 13.583 | –
CC[C@H](C)[C@@H]([C@@H](CC(=O)N1CCC[C@H]1[C@H](OC)[C@@H](C)C(=O)N[C@H](C)[C@@H](O)c1ccccc1)OC)N(C)C(=O)[C@@H](NC(=O)[C@@H](NC)C(C)C)C(C)C [MMAE, monomethyl auristatin E] (H-[NMeV]V[Dil][Dolaproine]-X2) | – | – | IC50 (MC38-hClaudin18.2 cells): 2.04 nM
CC[C@@]1(O)C(=O)OCc2c1cc1n(c2=O)Cc2c-1nc1cc(F)c(C)c3c1c2[C@@H](NC(=O)OCc1ccc(NC(=O)[C@H](CCC(=O)NCC[N+](C)(C)CCCS(=O)(=O)[O-])NC(=O)[C@@H](NC(=O)CCOCCOCCOCCOCCNC(=O)CCN2C(=O)C=CC2=O)C(C)C)cc1)CC3 [LD-38] | – | 13.57 | Cathepsin B enzyme digestion kinetics (Cathepsin B enzyme; [3]): 0%; Cathepsin B enzyme digestion kinetics (Cathepsin B enzyme; Time 1 h): 20%; Cathepsin B enzyme digestion kinetics (Cathepsin B enzyme; Time 2 h): 77%; Cathepsin B enzyme digestion kinetics (Cathepsin B enzyme; Time 20 h): 100%
CC[C@@]1(O)C(=O)OCc2c1cc1n(c2=O)Cc2c-1nc1cc(F)c(C)c3c1c2[C@@H](NC(=O)OCc1ccc(NC(=O)[C@H](C)NC(=O)[C@@H](NC(=O)CCOCCOCCOCCOCCNC(=O)CCN2C(=O)C=CC2=O)C(C)C)cc1CN(C)C(=O)CCC[N+](C)(C)CCCS(=O)(=O)[O-])CC3 [LD-65] | 99.28 | 13.46 | HIC retention time ([2]; listed as 7): 13.455 min; Cathepsin B enzyme digestion kinetics (Cathepsin B enzyme; [3]): 0%; Cathepsin B enzyme digestion kinetics (Cathepsin B enzyme; Time 1 h): 0%; Cathepsin B enzyme digestion kinetics (Cathepsin B enzyme; Time 2 h): 1%; Cathepsin B enzyme digestion kinetics (Cathepsin B enzyme; Time 4 h): 1%
CC[C@@]1(O)C(=O)OCc2c1cc1n(c2=O)Cc2c-1nc1cc(F)c(C)c3c1c2[C@@H](NC(=O)OCc1ccc(NC(=O)[C@H](C)NC(=O)[C@@H](NC(=O)CCOCCOCCOCCOCCNC(=O)CCN2C(=O)C=CC2=O)C(C)C)cc1CN(C)C(=O)CCOCCOCCOCCOCCOCCOCCOCCOCCOC)CC3 [LD-73] | 99.53 | 16.002 | –
CC[C@@]1(O)C(=O)OCc2c1cc1n(c2=O)Cc2c-1nc1cc(F)c(C)c3c1c2[C@@H](NC(=O)COCNC(=O)CNC(=O)[C@H](Cc1ccccc1)NC(=O)CNC(=O)CNC(=O)CCCCCN1C(=O)C=CC1=O)CC3 [Deruxtecan (MC-GGFG-Dxd), reference compound] ({Hexanoyl(6-maleimido)}-GGFG[NHCH2OCH2CO]-Exatecan) | – | – | Cathepsin B enzyme digestion kinetics (Cathepsin B enzyme; [3]): 0%; Cathepsin B enzyme digestion kinetics (Cathepsin B enzyme; Time 1 h): 0%; Cathepsin B enzyme digestion kinetics (Cathepsin B enzyme; Time 2 h): 0%; Cathepsin B enzyme digestion kinetics (Cathepsin B enzyme; Time 4 h): 0%; Cathepsin B enzyme digestion kinetics (Cathepsin B enzyme; Time 20 h): 0%; Cathepsin B enzyme digestion kinetics (Cathepsin B enzyme; Time 20 h, listed as MC-GGFG-Dxd): does not release any enzyme digestion products
CC[C@@]1(O)C(=O)OCc2c1cc1n(c2=O)Cc2c-1nc1cc(F)c(C)c3c1c2[C@@H](NC(=O)OCc1ccc(NC(=O)CNC(=O)[C@H](Cc2ccccc2)NC(=O)CNC(=O)CNC(=O)CCCCCN2C(=O)C=CC2=O)cc1CN(C)C(=O)COP(=O)([O-])OCC[N+](C)(C)C)CC3 [LD-72] | 98.90 | 13.126 | –
CC[C@H](C)[C@@H]([C@@H](CC(=O)N1CCC[C@H]1[C@H](OC)[C@@H](C)C(=O)N[C@H](C)[C@@H](O)c1ccccc1)OC)N(C)C(=O)[C@@H](NC(=O)[C@H](C(C)C)N(C)C(=O)OCc1ccc(NC(=O)[C@H](CCC(=O)NCC[N+](C)(C)CCCS(=O)(=O)[O-])NC(=O)[C@@H](NC(=O)CCCCCN2C(=O)C=CC2=O)C(C)C)cc1)C(C)C [LD-57] ({Hexanoyl(6-maleimido)}-VE(X1)[PABC][NMeV]V[Dil][Dolaproine]-X2) | 99.34 | 16.066 | –
CC[C@@]1(O)C(=O)OCc2c1cc1n(c2=O)Cc2c-1nc1cc(F)c(C)c3c1c2[C@@H](NC(=O)OCc1ccc(NC(=O)[C@H](C)NC(=O)[C@@H](NC(=O)[C@H](CCC(=O)NCC[N+](C)(C)CCCS(=O)(=O)[O-])NC(=O)CCOCCOCCOCCOCCNC(=O)CCN2C(=O)C=CC2=O)C(C)C)cc1)CC3 [LD-37] | 97.50 | 14.069 | –
CC[C@@]1(O)C(=O)OCc2c1cc1n(c2=O)Cc2c-1nc1cc(F)c(C)c3c1c2[C@@H](NC(=O)OCc1ccc(NC(=O)[C@H](C)NC(=O)[C@@H](NC(=O)CCCCCN(C)CCN2C(=O)C=CC2=O)C(C)C)cc1CN(C)C(=O)CCC[N+](C)(C)CCCS(=O)(=O)[O-])CC3 [LD-98] | 98.79 | 13.121 | –
CC[C@@]1(O)C(=O)OCc2c1cc1n(c2=O)Cc2c-1nc1cc(F)c(C)c3c1c2[C@@H](NC(=O)OCc1ccc(NC(=O)[C@H](C)NC(=O)[C@@H](NC(=O)[C@H](CCC(=O)O)NC(=O)CCCCCN2C(=O)C=CC2=O)C(C)C)cc1)CC3 [LD-27] | – | 15.107 | –
CC[C@@]1(O)C(=O)OCc2c1cc1n(c2=O)Cc2c-1nc1cc(F)c(C)c3c1c2[C@@H](NC(=O)OCc1ccc(NC(=O)[C@H](CCC(=O)N(CCCS(=O)(=O)[O-])CC[N+](C)(C)C)NC(=O)[C@@H](NC(=O)CCOCCOCCOCCOCCNC(=O)CCN2C(=O)C=CC2=O)C(C)C)cc1)CC3 [LD-89] | 98.00 | 13.392 | –

Source: patent publication US20260232825A1, “LINKER-DRUG MOLECULE AND ANTIBODY DRUG CONJUGATE, PREPARATION METHOD THEREFOR AND USE THEREOF” (SHANGHAI ESCUGEN BIOTECHNOLOGY CO., LTD., priority 2023, published 2026)
